Target: T1, NusA acidic repeat 2 domain (NusA-AR2) (E. coli, UniProt P0AFF6 426-495)
T1 construct: acidic repeat 2 domain (C-terminal domain) of E. coli NusA
Test: NMR titration; 2H,15N-NusA-SKK titrated with NusA-AR2 and 15N-NusA-AR2 titrated with NusA-SKK (up to 1:7.5); 5 mm tubes; 298 K; 50 mM MOPS pH 6.5, 100 mM NaCl, 150 mM D-glucose, 5 mM DTT; two-state fit of chemical shift changes
Conditions: both partners purified

B1: NusA-SKK (S1, KH1 and KH2 domains of NusA) (domain or fragment)
chain: not shown
- Kd: < 341 µM

Source: article PMC7171158, “NusA directly interacts with antitermination factor Q from phage λ” (Scientific Reports, 2020)
